Common to all, as to settings: protein: native; label: Au NP (about 58 nm) via thiol
For data set [1], the target named is T1, EpCAM (on MDA-MB-231 exosomes) (UniProt P16422 24-314).
T1 sequence: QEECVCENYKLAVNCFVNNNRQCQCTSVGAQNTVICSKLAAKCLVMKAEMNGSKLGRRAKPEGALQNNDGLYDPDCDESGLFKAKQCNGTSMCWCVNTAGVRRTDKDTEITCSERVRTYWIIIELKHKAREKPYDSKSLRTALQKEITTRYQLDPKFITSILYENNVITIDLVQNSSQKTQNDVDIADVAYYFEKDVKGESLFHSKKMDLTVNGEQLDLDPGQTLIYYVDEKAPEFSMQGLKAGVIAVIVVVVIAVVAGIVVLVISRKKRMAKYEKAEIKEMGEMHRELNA
In words: weak value amplification optical biosensor; multivalent Au NP-aptamer on exosomes; CW shift about 0.85 nm; Au NP-aptamer dispersed in ultrapure water, flowed over exosomes captured on Zr-ionized glass; pH and temperature not stated.

Data set [2] has as its target T2, CD63 (on MDA-MB-231 exosomes) (UniProt P08962 2-238). Kind of data set: weak value amplification optical biosensor; multivalent Au NP-aptamer on exosomes; no significant CW shift; Au NP-aptamer dispersed in ultrapure water, flowed over exosomes captured on Zr-ionized glass; pH and temperature not stated.
Data set [3] deals with T2, CD63 (on MDA-MB-231 exosomes). In words: weak value amplification optical biosensor; TEM; multivalent Au NP-aptamer on exosomes; Au NP-aptamer dispersed in ultrapure water, flowed over exosomes captured on Zr-ionized glass; pH and temperature not stated.

The text below walks through data of article PMC11048322, “Weak Value Amplification-Based Biochip for Highly Sensitive Detection and Identification of Breast Cancer Exosomes”.

T2 sequence (P08962 2-238): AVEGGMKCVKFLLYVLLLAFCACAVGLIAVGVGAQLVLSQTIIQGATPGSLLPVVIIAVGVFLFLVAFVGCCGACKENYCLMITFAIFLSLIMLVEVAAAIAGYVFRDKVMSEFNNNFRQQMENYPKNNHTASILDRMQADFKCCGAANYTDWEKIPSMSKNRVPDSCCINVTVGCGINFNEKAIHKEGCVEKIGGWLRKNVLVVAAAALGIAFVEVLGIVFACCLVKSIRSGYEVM

Regarding CACTACAGAGGTTGCGTCTGTCCCACGTTGTCATGGGGGGTTGGCCTG (ssDNA, 5'-SH C6) [EpCAM aptamer], the binding result in data set [1] is on record as “binds”.

For ACTCTTCACCCGCACATTCGCATCGCCCAAGC (ssDNA, 5'-SH C6) [Scrambled CD63 (SCD63)], in data set [2], the binding result is “no binding”.

On to CACCCCACCTCGCTCCCGTGACACTAATGCTA (ssDNA, 5'-SH C6) [CD63 aptamer], for which the binding result in data set [3] is reported as “binds”.
